Paper PMC8950404, “Signal Sequence-Dependent Orientation of Signal Peptide Fragments to Exosomes” (International Journal of Molecular Sciences, 2022)

Target: T1, recombinant human calmodulin (CALM) 1/2/3 (human, UniProt P0DP23 1-149)
T1 construct: human calmodulin, printed as calmodulin (CALM) 1/2/3; also called His-tagged CALM; source: bought: Abcam; not shown: His tag, N-terminal, kept
Test: pull-down; hAPP SP (9–17) 500 nM mixed with N-terminally His-tagged CALM 1 μg/mL in xTractor buffer, with or without CaCl2 500 μM, overnight at 4 °C; CALM separated on a Capturem His-Tagged Purification Miniprep; bound peptides read by MALDI-TOF MS/MS
Conditions: both partners purified

| binding result | Binder |
| --- | --- |
| binds | LAAWTARA (stretch of the signal peptide of human amyloid precursor protein (APP), one residue shorter than hAPP SP (9–17); also called exosomal SP fragment) [C-terminal fragment of APP SP (LAAWTARA)] |
| binds | LLAAWTARA (residues 9-17 of the signal peptide of human amyloid precursor protein (APP); also called C-terminal fragment of APP SP; source: synthetic peptide, bought: Eurofins Scientific) [hAPP SP (9–17)] |
